Publication PMC4432300, “Regulation of Oligomeric Organization of the Serotonin 5-Hydroxytryptamine 2C (5-HT2C) Receptor Observed by Spatial Intensity Distribution Analysis*” (The Journal of Biological Chemistry, 2015)
Where “and” joins values, the source holds several entries; their conditions need not be identical. Identical values can stand only once.

What was measured:
[1] = molecular target: the molecule itself; experiment: spatial intensity distribution analysis (SpIDA) of confocal images; basolateral membrane of intact cells induced with varying doxycycline, not treated with ligand (also vehicle, and after washout of antagonists with 60 min recovery); one-population model; QB against monomeric P-M-A206K eGFP
[2] = molecular target: the molecule itself; experiment: spatial intensity distribution analysis (SpIDA) of confocal images; basolateral membrane of intact cells treated with antagonist for 90 min at 37 °C (SB242084 50 nM, SB243213 50 nM or RS102221 100 nM); one-population model; QB against monomeric P-M-A206K eGFP

B1: human 5-HT2C receptor fused at its carboxyl terminus to A206K eGFP (5-HT2C-A206K eGFP) (receptor, UniProt P28335 33-458, looked up)
chain: IVTDIFNTSDGGRFKFPDGVQNWPALSIVIIIIMTIGGNILVIMAVSMEKKLHNATNYFLMSLAIADMLVGLLVMPLSLLAILYDYVWPLPRYLCPVWISLDVLFSTASIMHLCAISLDRYVAIRNPIEHSRFNSRTKAIMKIAIVWAISIGVSVPIPVIGLRDEEKVFVNNTTCVLNDPNFVLIGSFVAFFIPLTIMVITYCLTIYVLRRQALMLLHGHTEEPPGLSLDFLKCCKRNTAEEENSANPNQDQNARRRKKKERRPRGTMQAINNERKASKVLGIVFFVFLIMWCPFFITNILSVLCEKSCNQKLMEKLLNVFVWIGYVCSGINPLVYTLFNKIYRRAFSNYLRCNYKVEKKPPVRQIPRVAATALSGRELNVNIYRHTNEPVIEKASDNEPGIEMQVENLELPVNPSSVVSERISSV
notes: serotonin 5-hydroxytryptamine 2C (5-HT2C) receptor, human; construct in pEGFPN1, a gift of Dr. K. Herrick-Davis, subcloned into pcDNA5/FRT/TO; also called 5-HT2C-eGFP; serotonin 5-hydroxytryptamine 2C receptor; not shown: A206K eGFP, C-terminal, kept
Question: For B1, which “average quantal brightness relative to monomeric P-M-A206K eGFP” value [1] is on record?
Answer: Its value is 1.85 times.

Question: And the “stoichiometry N” value [1]?
Answer: The value was 2 and 4.

Question: What about the “average quantal brightness relative to monomeric P-M-A206K eGFP, after SB242084 (50 nM, 90 min)” value [2] of the same protein?
Answer: The value was 1.46 fold.
